Data taken from paper PMC6220982.
“And” between values parts separate entries of the source, which are not always exact repeats. Equal values may be shown once.

Experiments:
[1] = target: Asn3-ISP (intracellular subtilisin protease from Planococcus sp. AW02J18, starting at Asn3) (Planococcus sp. AW02J18); assay: SEC; pre-calibrated Superdex 200 10/300 GL; 500 µl Asn3-ISP at 0.8 mg/mL; 50 mM Tris-HCl pH 7.5, 150 mM NaCl; without calcium or with 1 mM EDTA (overnight)
[2] = target: Asn3-ISP (intracellular subtilisin protease from Planococcus sp. AW02J18, starting at Asn3) (Planococcus sp. AW02J18); assay: SEC; pre-calibrated Superdex 200 10/300 GL; 500 µl Asn3-ISP at 0.8 mg/mL; 50 mM Tris-HCl pH 7.5, 150 mM NaCl; with 2 mM CaCl2 added immediately before the run

For “Asn3-ISP (intracellular subtilisin protease from Planococcus sp. AW02J18, starting at Asn3) (enzyme)”, the stoichiometry N (monomers per oligomer) [1] was 3.3 and the stoichiometry N (monomers per oligomer) [2] was 3.7 and 2.5.
